T1: extracellular domain of human CD79b (huCD79becd) (human, UniProt P40259 29-159)
T1 construct: expressed in CHO cells
T1 sequence: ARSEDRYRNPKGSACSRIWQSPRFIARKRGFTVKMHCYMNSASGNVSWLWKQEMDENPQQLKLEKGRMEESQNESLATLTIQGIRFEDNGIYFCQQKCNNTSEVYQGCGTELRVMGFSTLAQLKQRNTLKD

B1: huMA79b graft variant with HVR-L2 of SEQ ID NO: 35 (Fab, name in Kabat numbering, V domains shown)
VH: EVQLVESGGGLVQPGGSLRLSCAASGYTFSSYWIEWVRQAPGKGLEWVGEILPGGGDTNYNEIFKGRFTISADTSKNTAYLQMNSLRAEDTAVYYCTRRVPVYFDYWGQGTLVTVSS
VL: DIQMTQSPSSLSASVGDRVTITCKASQSVDYDGDSFLNWYQQKPGKAPKLLIYAASNRKSGVPSRFSGSGSGTDFTLTISSLQPEDFATYYCQQSNEDPLTFGQGTKVEIKR
notes: Fab on phage
B2: huMA79b graft variant with HVR-H1 of SEQ ID NO: 57 (huMA79b H1-6) (Fab, V domains shown)
VH: EVQLVESGGGLVQPGGSLRLSCAASGYPFTRYWINWVRQAPGKGLEWVGEILPGGGDTNYNEIFKGRFTISADTSKNTAYLQMNSLRAEDTAVYYCTRRVPVYFDYWGQGTLVTVSS
VL: DIQMTQSPSSLSASVGDRVTITCKASQSVDYDGDSFLNWYQQKPGKAPKLLIYAASNLESGVPSRFSGSGSGTDFTLTISSLQPEDFATYYCQQSNEDPLTFGQGTKVEIK
notes: Fab on phage; also called H1-6 mutation
B3: huMA79b graft variant with HVR-L2 of SEQ ID NO: 36 (Fab, name in Kabat numbering, V domains shown)
VH: EVQLVESGGGLVQPGGSLRLSCAASGYTFSSYWIEWVRQAPGKGLEWVGEILPGGGDTNYNEIFKGRFTISADTSKNTAYLQMNSLRAEDTAVYYCTRRVPVYFDYWGQGTLVTVSS
VL: DIQMTQSPSSLSASVGDRVTITCKASQSVDYDGDSFLNWYQQKPGKAPKLLIYAASKLGSGVPSRFSGSGSGTDFTLTISSLQPEDFATYYCQQSNEDPLTFGQGTKVEIKR
notes: Fab on phage
B4: huMA79b graft variant with HVR-L3 of SEQ ID NO: 20 (Fab, name in Kabat numbering, V domains shown)
VH: EVQLVESGGGLVQPGGSLRLSCAASGYTFSSYWIEWVRQAPGKGLEWVGEILPGGGDTNYNEIFKGRFTISADTSKNTAYLQMNSLRAEDTAVYYCTRRVPVYFDYWGQGTLVTVSS
VL: DIQMTQSPSSLSASVGDRVTITCKASQSVDYDGDSFLNWYQQKPGKAPKLLIYAASNLESGVPSRFSGSGSGTDFTLTISSLQPEDFATYYCQQSNSDPLTFGQGTKVEIKR
notes: Fab on phage; also called SPL-5 mutation
B5: huMA79b graft variant with HVR-L3 of SEQ ID NO: 21 (Fab, name in Kabat numbering, V domains shown)
VH: EVQLVESGGGLVQPGGSLRLSCAASGYTFSSYWIEWVRQAPGKGLEWVGEILPGGGDTNYNEIFKGRFTISADTSKNTAYLQMNSLRAEDTAVYYCTRRVPVYFDYWGQGTLVTVSS
VL: DIQMTQSPSSLSASVGDRVTITCKASQSVDYDGDSFLNWYQQKPGKAPKLLIYAASNLESGVPSRFSGSGSGTDFTLTISSLQPEDFATYYCQQSNKDPLTFGQGTKVEIKR
notes: Fab on phage

Biological target: T1, extracellular domain of human CD79b …
Test: phage selection, Fab on phage
Method: For phage selection, the extracellular domain of CD79b (huCD79becd) (2 μg/ml) was immobilized in PBS on MaxiSorp microtiter plates (Nunc) overnight at 4° C. Plates were blocked for at least 1 h using Casein Blocker (Pierce). Phage were harvested from the culture supernatant and suspended in PBS containing 0.5% BSA and 0.05% Tween 20 (PBSBT). Following addition of the phage library and phage selection for 2 h, microtiter wells were washed extensively with PBS containing 0.05% Tween 20 (PBST) to remove unbound phage and bound phage were eluted by incubating the wells with 100 mM HCl for 30 min. Selection stringency may be increased during successive rounds of selection by increasing the number of washes with PBST or by incubating with soluble huCD79becd for increasing time periods prior to elution.

Question: Does B1 bind?
Answer: binds

Question: Does B2 bind?
Answer: binds

Question: Does B3 bind?
Answer: binds

Question: Does B4 bind?
Answer: binds

Question: Does B5 bind?
Answer: binds

From patent publication US20140335107A1 (published 2014)
